For the experiment, the target named is T1, Xeroderma Pigmentosum group C (XPC) (human, UniProt Q01831 1-940).
T1 sequence (looked up): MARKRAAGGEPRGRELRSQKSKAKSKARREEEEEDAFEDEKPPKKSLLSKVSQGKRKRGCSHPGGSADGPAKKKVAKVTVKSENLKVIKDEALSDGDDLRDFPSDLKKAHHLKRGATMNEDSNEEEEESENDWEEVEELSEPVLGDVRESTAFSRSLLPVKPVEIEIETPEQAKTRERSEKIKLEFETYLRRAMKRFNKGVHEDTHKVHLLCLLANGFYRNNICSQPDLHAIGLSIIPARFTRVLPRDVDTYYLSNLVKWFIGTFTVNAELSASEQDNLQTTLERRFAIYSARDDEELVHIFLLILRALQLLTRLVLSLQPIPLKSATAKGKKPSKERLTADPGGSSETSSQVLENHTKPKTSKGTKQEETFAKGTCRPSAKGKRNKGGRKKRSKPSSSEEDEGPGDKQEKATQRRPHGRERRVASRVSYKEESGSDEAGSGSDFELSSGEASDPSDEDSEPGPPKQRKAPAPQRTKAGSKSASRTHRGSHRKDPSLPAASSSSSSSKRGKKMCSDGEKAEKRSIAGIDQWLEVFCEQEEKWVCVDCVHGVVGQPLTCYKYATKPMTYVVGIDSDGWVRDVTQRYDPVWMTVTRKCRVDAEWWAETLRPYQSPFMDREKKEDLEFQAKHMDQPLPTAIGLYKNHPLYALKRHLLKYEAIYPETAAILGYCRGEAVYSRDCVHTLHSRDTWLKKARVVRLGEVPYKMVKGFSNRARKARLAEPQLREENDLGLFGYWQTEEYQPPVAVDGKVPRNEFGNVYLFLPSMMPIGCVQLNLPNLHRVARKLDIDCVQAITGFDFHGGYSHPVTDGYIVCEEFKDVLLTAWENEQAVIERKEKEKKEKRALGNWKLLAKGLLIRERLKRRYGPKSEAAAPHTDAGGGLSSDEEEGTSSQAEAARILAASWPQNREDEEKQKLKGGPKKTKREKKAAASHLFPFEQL
The experiment can be described thus: co-IP.

Here are results for one molecule from article PMC2811759 (Biochemistry, 2010).

B1: Rad23B (natural protein, human, UniProt P54727 1-409, looked up)
chain: MQVTLKTLQQQTFKIDIDPEETVKALKEKIESEKGKDAFPVAGQKLIYAGKILNDDTALKEYKIDEKNFVVVMVTKPKAVSTPAPATTQQSAPASTTAVTSSTTTTVAQAPTPVPALAPTSTPASITPASATASSEPAPASAAKQEKPAEKPAETPVATSPTATDSTSGDSSRSNLFEDATSALVTGQSYENMVTEIMSMGYEREQVIAALRASFNNPDRAVEYLLMGIPGDRESQAVVDPPQAASTGAPQSSAVAAAAATTTATTTTTSSGGHPLEFLRNQPQFQQMRQIIQQNPSLLPALLQQIGRENPQLLQQISQHQEHFIQMLNEPVQEAGGQGGGGGGGSGGIAEAGSGHMNYIQVTPQEKEAIERLKALGFPEGLVIQAYFACEKNENLAANFLLQQNFDED
For B1, the binding result is “binds”.
